{"source": "paper PMC7495468", "target": "HKU1-A HE ectodomain (human coronavirus HKU1 haemagglutinin-esterase, type A) (human coronavirus HKU1 (type A))", "assay": "[…] (4 mg/ml; SEC buffer 10 mM Tris-HCl pH 8, 50 mM NaCl), […]", "data": [{"substance": "HKU1-A HE ectodomain (human coronavirus HKU1 haemagglutinin-esterase, type A) (domain or fragment)", "values": [{"measurement": "stoichiometry N", "result": 2}]}]}
